# Data from patent publication US20120190616A1 (IPSEN PHARMA S A S, published 2012).
# Biological target: T1, native IGF-1 receptor of human MCF-7 cells (human, UniProt P08069 31-1367)
# T1 construct: whole, on cells; assayed in membranes prepared from MCF-7 cells
# Experiment: radioligand competition, [125I]IGF-1 on MCF-7 cell membranes
# Experimental: The homogenates were washed twice by centrifugation (39,000 g/10 minutes) and the final pellets were resuspended in 50 mM Tris-HCl containing 2.5 mM MgCl₂ and 0.1% BSA.
# Unlabeled competing test peptides were sometimes included. The final assay volume was 0.25 ml. […] The supernatant was decanted and the radioactive particles trapped in the pellet was counted by gamma spectrometry (Wallac LKB, Gaithersburg, Md., USA).
row,Binder,IC50 [nM]
1,"(Asn^59, Thr^63, des-Leu^64, des-Lys^65, Glu^70)hIGF-1(1-70)-OH (ligand, synthetic; Leu64 and Lys65 deleted; free acid C-terminus; disulfides 6-48, 47-52, 18-61) GPETLCGAELVDALQFVCGDRGFYFNKPTGYGSSSRRAPQTGIVDECCFRSCDLRRLENYCATPAKSE",19
2,"(Arg^27,65,68, Leu^59)hIGF-1(1-70)-OH (ligand, synthetic; free acid C-terminus; disulfides 6-48, 47-52, 18-61) GPETLCGAELVDALQFVCGDRGFYFNRPTGYGSSSRRAPQTGIVDECCFRSCDLRRLELYCAPLRPARSA",2.69
3,"(Leu^59, Arg^65,68)hIGF-1(1-70)-OH (ligand, synthetic; free acid C-terminus; disulfides 6-48, 47-52, 18-61) GPETLCGAELVDALQFVCGDRGFYFNKPTGYGSSSRRAPQTGIVDECCFRSCDLRRLELYCAPLRPARSA",2.89

# The remaining lines, values ahead:
row,IC50 [nM],Binder
1,0.88,"(Pro^27, Lys^28, Asn^59)hIGF-1(1-70)-OH (ligand, synthetic; free acid C-terminus; disulfides 6-48, 47-52, 18-61) GPETLCGAELVDALQFVCGDRGFYFNPKTGYGSSSRRAPQTGIVDECCFRSCDLRRLENYCAPLKPAKSA"
2,1.14,"(Pro^27, Lys^28, Asn^59)hIGF-1(1-62)-OH (ligand, synthetic; free acid C-terminus) GPETLCGAELVDALQFVCGDRGFYFNPKTGYGSSSRRAPQTGIVDECCFRSCDLRRLENYCA"
